In PMC4838387, “PolDIP2 interacts with human PrimPol and enhances its DNA polymerase activities”:

Target: T1, PrimPol24-354 (AEP catalytic domain);PolDIP2 (untagged) (human;human?, UniProt Q96LW4;Q9Y2S7 24-354;1-368, |)
T1 sequence 1: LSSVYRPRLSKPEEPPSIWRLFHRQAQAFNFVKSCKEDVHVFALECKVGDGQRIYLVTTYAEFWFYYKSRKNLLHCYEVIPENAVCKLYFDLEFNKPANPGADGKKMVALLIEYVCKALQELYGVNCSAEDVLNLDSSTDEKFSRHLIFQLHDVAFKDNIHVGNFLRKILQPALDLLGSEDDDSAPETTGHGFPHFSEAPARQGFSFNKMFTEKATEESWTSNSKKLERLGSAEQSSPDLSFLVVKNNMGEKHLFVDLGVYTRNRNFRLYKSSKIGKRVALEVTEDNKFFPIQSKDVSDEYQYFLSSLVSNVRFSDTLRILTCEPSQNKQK
T1 sequence 2: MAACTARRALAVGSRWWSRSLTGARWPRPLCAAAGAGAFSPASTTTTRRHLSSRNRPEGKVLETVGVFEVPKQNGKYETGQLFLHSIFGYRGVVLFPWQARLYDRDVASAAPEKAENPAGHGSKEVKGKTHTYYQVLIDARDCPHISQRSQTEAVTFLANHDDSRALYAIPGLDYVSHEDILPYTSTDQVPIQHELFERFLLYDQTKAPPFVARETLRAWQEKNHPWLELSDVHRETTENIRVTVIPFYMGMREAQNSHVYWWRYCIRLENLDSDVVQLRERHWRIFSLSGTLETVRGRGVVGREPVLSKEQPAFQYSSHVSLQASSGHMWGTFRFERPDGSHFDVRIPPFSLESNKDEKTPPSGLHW
Experiment: EMSA; PolDIP2 50-250 nM with PrimPol; more DNA bound than by PrimPol alone, super-shifted complex; 10 mM Mg2+; EMSA: 10 mM Bis-Tris-propane-HCl pH 7.0, 10 mM MgCl2, 100 uM DTT, 20 nM DNA; 5% native PAGE, 0.5x TBE; binding temperature not stated
Conditions: protein: recombinant;recombinant; tags: ;none (GST cleaved with PreScission protease); copies: 1;1; label: 5'-HEX on primer; 3'-biotin on template; 20 bp duplex; template 5' overhang 77 nt

B1: 20/97-mer primer/template (HP-20 / ND-97) (mixed)
DNA 1: TGTCGTCTGTTCGGTCGTTC
DNA 2: ACCGCGAACTTGAATTCTAGTTCAGTCTAAATGCTCTCAAGCACTGAGCAATTCACAACATATGGCTTTCGATTACCGAACGACCGAACAGACGACA
binding result: binds
